One molecule from patent US20160068605A1 (Janssen / Centocor, published 2016) can be followed below.

Test [1] deals with T1, cyno CD123 ECD displayed on pDisplay-transfected cells (cynomolgus monkey).
T1 construct: ECD anchored on the surface of stably transfected HEK293 cells; also called cynoCD123 SP1 cells; cynoCD123 cells
T1 chain: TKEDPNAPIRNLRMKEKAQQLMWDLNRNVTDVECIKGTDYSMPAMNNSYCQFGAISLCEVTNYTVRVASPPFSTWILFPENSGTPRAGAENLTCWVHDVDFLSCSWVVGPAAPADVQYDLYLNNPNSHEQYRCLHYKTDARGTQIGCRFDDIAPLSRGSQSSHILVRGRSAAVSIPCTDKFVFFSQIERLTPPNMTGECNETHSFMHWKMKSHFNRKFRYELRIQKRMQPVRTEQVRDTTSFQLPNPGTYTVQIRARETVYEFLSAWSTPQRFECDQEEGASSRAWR
The test can be described thus: MSD-CAT on pDisplay cells. On the procedure:
After equilibration the plate was centrifuged for 5 min ˜1000 rpm and free anti-CD3 detected on the supernatant. […] The assay buffer was removed without washing and 50 μL/well of 0.7 μg/mL of biotinylated antigen in assay buffer were added to MSD plates and incubated overnight (˜16 hr at 4° C.). After overnight incubation, the plates were blocked by adding 150 μL/well of assay buffer without removing coating antigen, incubated for ˜1 hr at ambient temperature and washed 5 times with wash buffer (assay buffer without BSA). 50 μL/well of the supernantants from samples plate were transferred to antigen-coated plates, incubated for 60 min, and then washed three times with wash Buffer. After this 50 μL per well of ruthenium labeled detection antibody(anti-human H+L) were added and incubated for 1 hr. After 1 hr the plates were washed and 150 μL of MSD Read Buffer (prepared by diluting 1:4 of stock into d. H₂O) were added per well. The plates were read immediately on the MSD Sector Imager 6000 Reader for luminescence levels. ECL signal detected by MSD was expressed in term of % free antibody in the mixture and the data was analyzed to determine affinity using a user defined equation (derived from the law of mass action) introduced in Prism software.

Test [2] has as its target T2, human CD123 SP1 ECD displayed on pDisplay-transfected cells (human, UniProt P26951 20-305).
T2 construct: ECD anchored on the surface of stably transfected HEK293 cells by the PDGFR transmembrane domain; also called hCD123 SP1 cells; hCD123 cells
T2 sequence: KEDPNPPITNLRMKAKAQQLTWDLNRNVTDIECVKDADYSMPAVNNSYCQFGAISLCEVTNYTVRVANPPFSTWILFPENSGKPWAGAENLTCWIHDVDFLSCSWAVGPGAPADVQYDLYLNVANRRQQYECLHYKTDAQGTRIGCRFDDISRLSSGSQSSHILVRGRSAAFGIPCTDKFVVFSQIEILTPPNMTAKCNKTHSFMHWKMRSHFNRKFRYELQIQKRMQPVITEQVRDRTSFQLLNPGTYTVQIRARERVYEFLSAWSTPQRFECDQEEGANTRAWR
Description: MSD-CAT on pDisplay cells. As for the experimental part: (§1) The MSD-CAT was developed in-house as a label-free method to determine affinity using intact cells in a high throughput format. […] Cell lines used were human pDisplay CD123SP1 and pDisplay CD123SP2. […] These samples were prepared in DMEM Glutamax medium containing 0.05% Azide, 1% BSA, 3 mM EDTA. […] After equilibration the plate was centrifuged for 5 minutes ˜1000 rpm and free anti-CD3 detected on the supernatant. […] The assay buffer was removed without washing and 50 uL/well of 0.7 ug/mL of biotinylated antigen in assay buffer were added to MSD plates and incubated overnight (˜16 hours at 4° C.).

The target of test [3] is T3, human CD123 SP2 ECD displayed on pDisplay-transfected cells (human, UniProt P26951 101-305).
T3 construct: ECD anchored on the surface of stably transfected HEK293 cells; also called hCD123 SP2 cells; pDisplay CD123SP2
T3 sequence: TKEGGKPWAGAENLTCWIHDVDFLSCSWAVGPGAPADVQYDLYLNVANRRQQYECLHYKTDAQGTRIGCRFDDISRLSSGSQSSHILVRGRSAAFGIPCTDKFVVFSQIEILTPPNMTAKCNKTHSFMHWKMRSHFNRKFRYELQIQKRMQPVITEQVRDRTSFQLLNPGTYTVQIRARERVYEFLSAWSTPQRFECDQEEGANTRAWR
The test can be described thus: MSD-CAT on pDisplay cells. As for the experimental part:
as §1

In test [4] the target is T4, Recombinant human CD123 SP1 ECD-His tag protein (human, UniProt P26951 20-305).
T4 construct: bought from R&D Systems (#301-R3/CF); biotinylated for some assays; also called rhCD123 SP1; huCD123 ECD SP1
T4 sequence: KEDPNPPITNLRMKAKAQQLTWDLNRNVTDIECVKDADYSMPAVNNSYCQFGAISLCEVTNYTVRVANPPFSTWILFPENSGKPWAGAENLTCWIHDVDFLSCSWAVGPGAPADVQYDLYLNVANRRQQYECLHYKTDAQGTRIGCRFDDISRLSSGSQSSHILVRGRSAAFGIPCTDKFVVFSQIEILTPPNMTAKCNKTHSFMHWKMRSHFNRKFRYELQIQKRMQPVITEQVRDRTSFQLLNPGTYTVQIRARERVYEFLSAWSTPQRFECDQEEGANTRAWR
Description: SPR Biacore T200, captured antibody. As for the experimental part: Kinetic studies were performed at 25° C. using a Biacore T200 (Biacore, Inc., now part of GE Healthcare). […] The carboxymethyl groups of dextran were activated with N-Ethyl-N′-(3-Dimethylaminopropyl)carbodiimide (EDC) and N-hydroxysuccinimide (NHS). The anti-Fc antibody was coupled at pH 4.5 in 10 mM sodium acetate. Any remaining reactive sites on the surface were blocked by reaction with ethanolamine. […] 40-70 RU of antibody were captured. […] Association data was collected for 2 min followed by 10 min of dissociation. The surface was regenerated with 30 μL of 100 mM H3PO4 100 μL/min, followed by 50 mM NaOH. The samples for kinetic analysis were prepared in PBS-based buffer (D-PBS containing 3 mM EDTA and 0.005% surfactant P20). Data reported is the difference in SPR signal between the flow cell containing the captured antibody and a reference cell without captured antibody. Additional instrumental contributions to the signal were removed by subtraction of the data from the blank injection from the reference-subtracted signal. Data were analyzed by fitting association and dissociation phases at all concentrations (global fit) with a 1:1 binding model using the BIAevaluation software (BIAcore, Inc.).
For orientation: In SPR one partner is held on a chip, and binding of the other changes the refractive index at the surface.

The target of test [5] is T1, cyno CD123 ECD displayed on …. Description: MSD-CAT, cynoCD123 cells, assay-1; apparent KD (bivalent).
The target is the same in test [6]. The test can be described thus: MSD-CAT, cynoCD123 cells, assay-2; apparent KD (bivalent).

B1: I3RB18 (antibody, IgG1, V domains shown)
VH: EVQLVQSGAEVKKPGESLKISCKGSGYSFTSYWISWVRQMPGKGLEWMGIIDPSDSDTRYSPSFQGQVTISADKSISTAYLQWSSLKASDTAMYYCARGDGSTDLDYWGQGTLVTVSS
VL: EIVLTQSPGTLSLSPGERATLSCRASQSVSSSYLAWYQQKPGQAPRLLIYGASSRATGIPDRFSGSGSGTDFTLTISRLEPEDFAVYYCQQDYGFPWTFGQGTKVEIK
notes: IgG1; also called 13RB18; mAb I3RB18
As usually defined, the koff is the rate constant with which the complex falls apart. One may read the kon as a measure of how fast the partners come together. Regarding B1, the “fold weaker than to human CD123 SP1” value in test [1] is greater than 10 fold. The Kd in test [2] is 0.047 nM; in test [3], 0.049 nM; in test [4], 0.935 nM; in test [5], 0.832 nM; in test [6], greater than 11.9 nM. The koff in test [4] was determined as 0.00072 s⁻¹. In addition, the kon in test [4] amounted to 773000 M⁻¹ s⁻¹.
